Target: the molecule itself
Assay: cryo-EM structure

B1: human XPR1 (natural protein)
chain: MKFAEHLSAHITPEWRKQYIQYEAFKDMLYSAQDQAPSVEVTDEDTVKRYFAKFEEKFFQTCEKELAKINTFYSEKLAEAQRRFATLQNELQSSLDAQKESTGVTTLRQRRKPVFHLSHEERVQHRNIKDLKLAFSEFYLSLILLQNYQNLNFTGFRKILKKHDKILETSRGADWRVAHVEVAPFYTCKKINQLISETEAVVTNELEDGDRQKAMKRLRVPPLGAAQPAPAWTTFRVGLFCGIFIVLNITLVLAAVFKLETDRSIWPLIRIYRGGFLLIEFLFLLGINTYGWRQAGVNHVLIFELNPRSNLSHQHLFEIAGFLGILWCLSLLACFFAPISVIPTYVYPLALYGFMVFFLINPTKTFYYKSRFWLLKLLFRVFTAPFHKVGFADFWLADQLNSLSVILMDLEYMICFYSLELKWDESKGLLPNNSEESGICHKYTYGVRAIVQCIPAWLRFIQCLRRYRDTKRAFPHLVNAGKYSTTFFMVTFAALYSTHKERGHSDTMVFFYLWIVFYIISSCYTLIWDLKMDWGLFDKNAGENTFLREEIVYPQKAYYYCAIIEDVILRFAWTIQISITSTTLLPHSGDIIATVFAPLEVFRRFVWNFFRLENEHLNNCGEFRAVRDISVAPLNADDQTLLEQMMDQDDGVRNRQKNRSWKYNQSISLRRPRLASQSKARDTKVLIEDTDDEANT
In the case of B1, the “stoichiometry N” value is reported as 2.

Source: article doi:10.1101/2024.08.19.608714 (bioRxiv, 2024)
